We go through 13 molecules from US20240270866A1 (Alector, published 2024).

The target of test [1] is T1, mouse SIRPA overexpressed on CHO cells (mouse, UniProt P97797 32-513).
T1 construct: also called CHO-muSIRPA
T1 sequence: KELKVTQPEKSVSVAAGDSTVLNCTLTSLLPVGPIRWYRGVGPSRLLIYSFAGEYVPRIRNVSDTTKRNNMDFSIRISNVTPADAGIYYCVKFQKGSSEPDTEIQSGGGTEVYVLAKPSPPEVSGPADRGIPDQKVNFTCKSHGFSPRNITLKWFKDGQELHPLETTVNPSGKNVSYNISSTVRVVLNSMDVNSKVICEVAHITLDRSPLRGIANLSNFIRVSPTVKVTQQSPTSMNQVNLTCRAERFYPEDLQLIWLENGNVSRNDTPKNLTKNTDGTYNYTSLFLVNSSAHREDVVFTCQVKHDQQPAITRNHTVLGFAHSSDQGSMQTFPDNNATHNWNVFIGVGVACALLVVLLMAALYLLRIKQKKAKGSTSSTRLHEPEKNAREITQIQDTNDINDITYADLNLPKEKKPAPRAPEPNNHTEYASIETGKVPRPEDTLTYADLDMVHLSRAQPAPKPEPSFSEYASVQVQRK
The experiment in a line: flow, CHO-muSIRPA.
Protocol: (§1) Initial characterization of anti-SIRPA antibodies of the present disclosure involved determining their ability to bind cell lines overexpressing human or mouse SIRPA. Cells were harvested, plated at 10⁶/ml in a 96 well plate, washed, and incubated in 100 ul PBS containing 1 ug/ml Mab for 1 hour in ice. Cells were then washed twice and incubated in 100 ul PBS containing 5 ug/ml PE-conjugated secondary antibody for 30 minutes in ice. Cells were washed twice in cold PBS and acquired on a BD FACS Canto. Data analysis and calculation of mean fluorescence intensity (MFI) values or % positive cells was performed with FlowJo® (TreeStar) software version 10.0.7.

For test [2], the target named is T2, human SIRPA overexpressed on CHO cells (human, UniProt P78324 31-504).
T2 construct: also called CHO-huSIRPA
The experiment in a line: flow, CHO-huSIRPA.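 Note: Anti-SIRPA antibodies applied at 1 µg/mL for 1 h on ice, binding read by flow cytometry using a PE-labelled secondary antibody.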
Protocol: as §1

Test [3] deals with T1, mouse SIRPA overexpressed on CHO cells. The experiment in a line: flow, CHO-muSIRPA. This is another data set of the same source.
Another test deals with Human SIRPb D1 Fc (human, UniProt O00241 30-148, limits assumed). Kind of test: ForteBio IgG avid.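 Note: antibody IgG captured on AHQ biosensors, then 100 nM Fc-fused SIRP antigen applied for 3 min, followed by 3 min buffer dissociation, kinetics fitted to a 1:1 model.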 For orientation: In BLI a coated tip is dipped into the sample, and binding shifts an interference pattern.
Human SIRPb D1 Fc, sequence (O00241 30-148 limits assumed): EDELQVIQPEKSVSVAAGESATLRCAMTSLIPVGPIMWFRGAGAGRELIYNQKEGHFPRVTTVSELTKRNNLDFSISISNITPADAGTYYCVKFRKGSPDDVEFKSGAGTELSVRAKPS
In the next test the target is T3, Mouse SIRPA D1 Fc (mouse, UniProt P97797 32-150, limits assumed).
T3 sequence: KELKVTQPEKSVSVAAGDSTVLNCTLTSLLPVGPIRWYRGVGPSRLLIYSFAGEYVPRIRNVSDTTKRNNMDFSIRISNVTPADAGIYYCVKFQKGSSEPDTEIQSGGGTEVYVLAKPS
Kind of test: ForteBio IgG avid.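 Note: antibody IgG captured on AHQ biosensors, then 100 nM Fc-fused SIRP antigen applied for 3 min, followed by 3 min buffer dissociation, kinetics fitted to a 1:1 model.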

Protocol for Human SIRPb D1 Fc: (§2) Briefly, ForteBio affinity measurements were performed by loading IgGs on-line onto AHQ sensors. Sensors were equilibrated off-line in assay buffer for 30 min and then monitored on-line for 60 seconds for baseline establishment. For avid binding measurement, sensors with loaded IgGs were exposed to 100 nM antigen (human SIRPA or SIRPβ1 Fc fusion) for 3 min, afterwards they were transferred to assay buffer for 3 min for off-rate measurement. Additional avid binding was determined by loading biotinylated SIRPA monomer on SA sensors and exposure to 100 nM IgG in solution. Monovalent binding measurements were obtained by loading human SIRPA or SIRPβ1 Fc fusion antigens to AHQ sensor and followed by exposure to 100 nM anti-SIRPA antibody Fab. Additional monovalent measurements were made by loading biotinylated human SIRPA or SIRPβ1 monomer to SA sensor followed by exposure to 100 nM Fab in solution. Kinetics data were fit using a 1:1 binding model in the data analysis software provided by ForteBio.
Protocol for Mouse SIRPA D1 Fc: as §2

B1: SA-53 (antibody, V domains shown)
VH: QVQLQESGPGLVKPSQTLSLTCTVSGGSISSGGYYWSWIRQHPGKGLEWIGYIYYSGSTYYNPSLKSRVTISVDTSKNQFSLKLSSVTAADTAVYYCARGPLGAAGFDYWGQGTLVTVSS
VL: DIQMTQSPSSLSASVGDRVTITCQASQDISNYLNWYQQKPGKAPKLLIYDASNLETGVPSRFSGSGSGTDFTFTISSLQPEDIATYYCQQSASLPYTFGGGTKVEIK
notes: IgG
With B1, the results for the “relative MFI” value in test [1] and in test [2] were 0.726 fold over background and 2.13 fold over background, respectively. Besides, the binding result in test [3] was “no binding (tested: 1 ug/ml)”; in the test with Human SIRPb D1 Fc, “no binding (tested: 100 nM)”; with Mouse SIRPA D1 Fc, “no binding (tested: 100 nM)”.

B2: SA-17 (antibody, V domains shown)
VH: QVQLVQSGAEVKKPGSSVKVSCKASGGTFSSYAISWVRQAPGQGLEWMGGIIPIFGTASYAQKFQGRVTITADESTSTAYMELSSLRSEDTAVYYCARDLSAFYVGPFDYWGQGTLVTVSS
VL: EIVMTQSPATLSVSPGERATLSCRASQSVSSSLAWYQQKPGQAPRLLIYGASTRATGIPARFSGSGSGTEFTLTISSLQSEDFAVYYCQQDYIWPLTFGGGTKVEIK
notes: IgG
On to B2, for which the “relative MFI” value in test [1] is 0.476 fold over background; in test [2], 0.989 fold over background. The binding result is given as “no binding (tested: 1 ug/ml)” in test [3], “no binding (tested: 100 nM)” with Human SIRPb D1 Fc and “no binding (tested: 100 nM)” with Mouse SIRPA D1 Fc.

B3: SA-41 (antibody, V domains shown)
VH: QVQLQESGPGLVKPSETLSLTCTVSGGSISSYYWSWIRQPPGKGLEWIGSIYYSGSTNYNPSLKSRVTISVDTSKNQFSLKLSSVTAADTAVYYCAREGVAARGYYYGMDVWGQGTTVTVSS
VL: EIVMTQSPATLSVSPGERATLSCRASQSVSSSLAWYQQKPGQAPRLLIYGASTRATGIPARFSGSGSGTEFTLTISSLQSEDFAVYYCQQYITYPITFGGGTKVEIK
notes: IgG
On to B3, for which the “relative MFI” value came to 0.47 fold over background in test [1] and 0.989 fold over background in test [2]. Further, the binding result in test [3] is reported as “no binding (tested: 1 ug/ml)”; with Human SIRPb D1 Fc, “no binding (tested: 100 nM)”; in the test with Mouse SIRPA D1 Fc, “no binding (tested: 100 nM)”.

B4: SA-42 (antibody, V domains shown)
VH: QVQLQESGPGLVKPSETLSLTCTVSGGSISSYYWSWIRQPPGKGLEWIGSIYYSGSTNYNPSLKSRVTISVDTSKNQFSLKLSSVTAADTAVYYCAREGVAARGYYYGMDVWGQGTTVTVSS
VL: EIVMTQSPATLSVSPGERATLSCRASQSVSSNLAWYQQKPGQAPRLLIFGASTRATGIPARFSGSGSGTEFTLTISSLQSEDFAVYYCQQYNAYPITFGGGTKVEIK
notes: IgG
Take B4: the entries for the “relative MFI” value in test [1] and in test [2] were 0.443 fold over background and 1.29 fold over background, respectively. For the same molecule, the binding result is recorded as “no binding (tested: 1 ug/ml)” in test [3], “no binding (tested: 100 nM)” in the test with Human SIRPb D1 Fc and “no binding (tested: 100 nM)” with Mouse SIRPA D1 Fc.

B5: SA-50 (antibody, V domains shown)
VH: EVQLVESGGGLVQPGGSLRLSCAASGFTFSSYSMNWVRQAPGKGLEWVSYISSSSSTIYYADSVKGRFTISRDNAKNSLYLQMNSLRAEDTAVYYCARGGGGYSYSPYIYGMDVWGQGTTVTVSS
VL: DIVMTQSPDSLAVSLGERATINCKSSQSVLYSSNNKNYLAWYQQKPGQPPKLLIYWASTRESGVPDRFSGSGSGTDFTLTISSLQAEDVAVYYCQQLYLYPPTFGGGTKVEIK
notes: IgG
With B5, the entries for the “relative MFI” value in test [1] and in test [2] were 0.518 fold over background and 5.56 fold over background, respectively. Besides, the binding result was “no binding (tested: 1 ug/ml)” in test [3], “no binding (tested: 100 nM)” in the test with Human SIRPb D1 Fc and “no binding (tested: 100 nM)” with Mouse SIRPA D1 Fc.

B6: SA-48 (antibody, V domains shown)
VH: QVQLVESGGGVVQPGRSLRLSCAASGFTFSSYGMHWVRQAPGKGLEWVAVISYDGSNKYYADSVKGRFTISRDNSKNTLYLQMNSLRAEDTAVYYCARGAPIETLGVYYYGMDVWGQGTTVTVSS
VL: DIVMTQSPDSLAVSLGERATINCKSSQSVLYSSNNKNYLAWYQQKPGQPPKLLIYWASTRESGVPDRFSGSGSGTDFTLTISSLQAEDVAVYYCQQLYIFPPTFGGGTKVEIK
notes: IgG
On to B6, for which the “relative MFI” value in test [1] is 0.545 fold over background; in test [2], 3.27 fold over background. The binding result in test [3] was “no binding (tested: 1 ug/ml)”; with Human SIRPb D1 Fc, “no binding (tested: 100 nM)”; with Mouse SIRPA D1 Fc, “no binding (tested: 100 nM)”.

B7: SA-18 (antibody, V domains shown)
VH: EVQLVESGGGLVQPGGSLRLSCAASGFTFSSYWMSWVRQAPGKGLEWVANIKSDGSEKYYVDSVKGRFTISRDNAKNSLYLQMNSLRAEDTAVYYCARDLSYEPSYPFDIWGQGTMVTVSS
VL: DIQMTQSPSSVSASVGDRVTITCRASQGISSWLAWYQQKPGKAPKLLIYAASSLQSGVPSRFSGSGSGTDFTLTISSLQPEDFATYYCQQALSFPFTFGGGTKVEIK
notes: IgG
B7: the “relative MFI” value in test [1] is 0.56 fold over background; in test [2], 2.13 fold over background. Moreover, the binding result is given as “no binding (tested: 1 ug/ml)” in test [3], “no binding (tested: 100 nM)” with Human SIRPb D1 Fc and “no binding (tested: 100 nM)” with Mouse SIRPA D1 Fc.

B8: SA-44 (antibody, V domains shown)
VH: EVQLVESGGGLVQPGGSLRLSCAASGFTFSSYSMNWVRQAPGKGLEWVSYISSSSSTIYYADSVKGRFTISRDNAKNSLYLQMNSLRAEDTAVYYCAREPFYSADRFDYWGQGTLVTVSS
VL: DIQMTQSPSSVSASVGDRVTITCRASQGIDSWLAWYQQKPGKAPKLLIYAASSLQSGVPSRFSGSGSGTDFTLTISSLQPEDFATYYCQQGVSLPYTFGGGTKVEIK
notes: IgG
For B8, the “relative MFI” value in test [1] was 0.56 fold over background; in test [2] it was 1.2 fold over background. The binding result is reported as “no binding (tested: 1 ug/ml)” in test [3], “no binding (tested: 100 nM)” with Human SIRPb D1 Fc and “no binding (tested: 100 nM)” with Mouse SIRPA D1 Fc.

B9: SA-40 (antibody, V domains shown)
VH: QVQLVQSGAEVKKPGASVKVSCKASGYTFTSYYMHWVRQAPGQGLEWMGIINPSGGSTTYAQKFQGRVTMTRDTSTSTVYMELSSLRSEDTAVYYCAREGLASTGVSDYYYMDVWGKGTTVTVSS
VL: EIVLTQSPGTLSLSPGERATLSCRASQSVSSSYLAWYQQKPGQAPRLLIYGASSRATGIPDRFSGSGSGTDFTLTISRLEPEDFAVYYCQQLAHSPFTFGGGTKVEIK
notes: IgG
In the case of B9, the “relative MFI” value in test [1] was found to be 0.446 fold over background; in test [2], 0.542 fold over background. The figures for the binding result (in test [3]; with Human SIRPb D1 Fc; in the test with Mouse SIRPA D1 Fc) were “no binding (tested: 1 ug/ml)”, “no binding (tested: 100 nM)” and “no binding (tested: 100 nM)”, respectively.

B10: SA-52 (antibody, V domains shown)
VH: QVQLVQSGAEVKKPGASVKVSCKASGYTFTNYGISWVRQAPGQGLEWMGWISAYNGNTNYAQKLQGRVTMTTDTSTSTAYMELRSLRSDDTAVYYCARGLWSEHIYWGQGTLVTVSS
VL: EIVMTQSPGTLSLSPGERATLSCRASQSVSSSYLAWYQQKPGQAPRLLIYGASNRATGIPDRFSGSGSGTDFTLTISRLEPEDFAVYYCQQYVDLPLTFGGGTKVEIK
notes: IgG
With B10, the “relative MFI” value in test [1] is 0.557 fold over background; in test [2] it was 1.9 fold over background. Moreover, the binding result in test [3] is reported as “no binding (tested: 1 ug/ml)”; with Human SIRPb D1 Fc, “no binding (tested: 100 nM)”; with Mouse SIRPA D1 Fc, “no binding (tested: 100 nM)”.

B11: SA-45 (antibody, V domains shown)
VH: QVQLVQSGAEVKKPGASVKVSCKASGYTFTSYGISWVRQAPGQGLEWMGWISAYNGNTNYAQKLQGRVTMTTDTSTSTAYMELRSLRSDDTAVYYCARESGGTGAYGMDVWGQGTTVTVSS
VL: DIQMTQSPSSLSASVGDRVTITCRASQSVSSSYLAWYQQKPGQAPRLLIYGASSRATGIPDRFSGSGSGTDFTLTISRLEPEDFAVYYCQQYYDSITFGGGTKVEIK
notes: IgG
As for B11, the results for the “relative MFI” value in test [1] and in test [2] were 0.512 fold over background and 14.1 fold over background, respectively. For the same molecule, the binding result is “no binding (tested: 1 ug/ml)” in test [3], “no binding (tested: 100 nM)” with Human SIRPb D1 Fc and “no binding (tested: 100 nM)” with Mouse SIRPA D1 Fc.

B12: SA-20 (antibody, V domains shown)
VH: QVQLVESGGGVVQPGRSLRLSCAASGFTFSSYGMHWVRQAPGKGLEWVAVISYDGSNKYYADSVKGRFTISRDNSKNTLYLQMNSLRAEDTAVYYCAKEPRSYWHGYGMDVWGQGTTVTVSS
VL: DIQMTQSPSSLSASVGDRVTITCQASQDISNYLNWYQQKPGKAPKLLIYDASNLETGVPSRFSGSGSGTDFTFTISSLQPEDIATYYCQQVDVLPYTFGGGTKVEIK
notes: IgG
On to B12, for which the “relative MFI” value is 0.786 fold over background in test [1] and 5.19 fold over background in test [2]. Moreover, the binding result in test [3] was “no binding (tested: 1 ug/ml)”; with Human SIRPb D1 Fc, “no binding (tested: 100 nM)”; with Mouse SIRPA D1 Fc, “no binding (tested: 100 nM)”.

B13: SA-30 (antibody, V domains shown)
VH: QVQLVESGGGVVQPGRSLRLSCAASGFTFSSYGMHWVRQAPGKGLEWVAVIWYDGSNKYYADSVKGRFTISRDNSKNTLYLQMNSLRAEDTAVYYCARDTGSATTMWLYGMDVWGKGTTVTVSS
VL: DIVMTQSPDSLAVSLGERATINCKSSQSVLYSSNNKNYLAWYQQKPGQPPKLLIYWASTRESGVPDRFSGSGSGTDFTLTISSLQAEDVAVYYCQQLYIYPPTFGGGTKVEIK
notes: IgG
As to B13, the “relative MFI” value was found to be 0.595 fold over background in test [1] and 41.2 fold over background in test [2]. For the same molecule, the binding result in test [3] was “no binding (tested: 1 ug/ml)”; with Human SIRPb D1 Fc it was “no binding (tested: 100 nM)”; with Mouse SIRPA D1 Fc, “no binding (tested: 100 nM)”.
